# Laboratory results from IntAct's records for PubMed 17981117.
# Target: ima4_human KPNA3 (UniProt O00505)
# Sequence (O00505 whole entry): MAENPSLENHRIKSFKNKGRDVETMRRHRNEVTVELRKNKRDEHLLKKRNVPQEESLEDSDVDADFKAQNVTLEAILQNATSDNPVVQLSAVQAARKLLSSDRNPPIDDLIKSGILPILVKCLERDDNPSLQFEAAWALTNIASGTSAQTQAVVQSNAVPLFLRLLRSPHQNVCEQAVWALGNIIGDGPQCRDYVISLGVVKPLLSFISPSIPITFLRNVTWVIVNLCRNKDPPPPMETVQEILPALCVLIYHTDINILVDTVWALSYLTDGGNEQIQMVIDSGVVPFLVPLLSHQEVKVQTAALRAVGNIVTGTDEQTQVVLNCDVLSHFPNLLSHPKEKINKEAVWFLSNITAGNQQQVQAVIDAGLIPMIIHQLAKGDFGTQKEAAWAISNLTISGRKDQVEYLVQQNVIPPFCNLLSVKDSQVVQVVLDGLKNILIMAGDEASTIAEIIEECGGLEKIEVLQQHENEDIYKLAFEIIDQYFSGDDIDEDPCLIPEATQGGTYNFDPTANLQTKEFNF
substance,measurement,value
"Circumsporozoite protein (Plasmodium yoelii yoelii), P06914 R315T;R317T;R319T",effect of a mutation on the interaction,decreasing interaction
